One block for each molecule: values may come before it.
How the values were obtained:
MBD3 (Homo sapiens) [1] = molecular target: T1, MBD3 (Homo sapiens) (UniProt O95983); assay: competition; settings: EMSA with 32P-labeled PCR probes, binding buffer, salt, pH and temperature not in the material
T1 sequence: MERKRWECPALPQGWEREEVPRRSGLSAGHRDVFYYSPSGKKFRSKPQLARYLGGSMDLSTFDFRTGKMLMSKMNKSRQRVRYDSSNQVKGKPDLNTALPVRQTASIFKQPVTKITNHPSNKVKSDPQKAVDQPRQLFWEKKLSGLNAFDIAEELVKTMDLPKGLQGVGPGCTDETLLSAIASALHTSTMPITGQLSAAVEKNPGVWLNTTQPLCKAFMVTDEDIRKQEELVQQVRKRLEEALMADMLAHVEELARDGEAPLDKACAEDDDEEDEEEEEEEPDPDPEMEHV

MBD3 (Homo sapiens) [2] = molecular target: T1, MBD3 (Homo sapiens); assay: EMSA; settings: EMSA with 32P-labeled PCR probes, binding buffer, salt, pH and temperature not in the material
[3] = molecular target: T2, recombinant MKRN3 protein (GST-tagged) (human, UniProt Q13064 1-507); assay: pull-down; GST pull-down of MKRN3 protein with His6-tagged MBD3, in vitro; settings: both partners purified
T2 construct: MKRN3 (Makorin ring finger protein 3), human, E3 ubiquitin ligase; also called Makorin ring finger protein 3; source: recombinant
T2 sequence (looked up): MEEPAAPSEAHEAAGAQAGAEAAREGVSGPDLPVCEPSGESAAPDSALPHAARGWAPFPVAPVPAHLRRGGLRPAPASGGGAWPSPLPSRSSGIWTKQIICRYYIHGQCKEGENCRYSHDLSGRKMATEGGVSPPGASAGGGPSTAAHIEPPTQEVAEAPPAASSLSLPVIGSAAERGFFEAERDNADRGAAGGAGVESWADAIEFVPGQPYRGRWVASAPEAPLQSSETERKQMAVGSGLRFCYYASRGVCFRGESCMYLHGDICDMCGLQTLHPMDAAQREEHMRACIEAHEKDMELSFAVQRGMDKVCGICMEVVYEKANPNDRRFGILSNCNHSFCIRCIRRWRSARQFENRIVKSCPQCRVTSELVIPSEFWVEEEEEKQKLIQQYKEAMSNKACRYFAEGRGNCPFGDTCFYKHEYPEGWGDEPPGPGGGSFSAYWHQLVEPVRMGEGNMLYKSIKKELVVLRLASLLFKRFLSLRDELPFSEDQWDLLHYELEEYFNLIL

Molecule: TTCTTCAGCTTTGGGACTCAGACTGGCTTTCCTTGCTCCTCAGCTTGCGGACGGCCTACTGTGGGACCTTGGGATCGTGTGAGTTAATACTTAATAAACTCTCCTATGTGCGTGTGTTTGTGTGTGTGTGTGTGTGTGTATGTATTCTGTCCCTCTAGAGAATGCTGAGTAATACA (double strand) [GNRH1 promoter 5hmC competitor]
binding (MBD3 (Homo sapiens) [1]; 5-hydroxymethylcytosine): binds

Molecule: TTCTTCAGCTTTGGGACTCAGACTGGCTTTCCTTGCTCCTCAGCTTGCGGACGGCCTACTGTGGGACCTTGGGATCGTGTGAGTTAATACTTAATAAACTCTCCTATGTGCGTGTGTTTGTGTGTGTGTGTGTGTGTGTATGTATTCTGTCCCTCTAGAGAATGCTGAGTAATACA (double strand) [GNRH1 promoter 5hmC probe]
binding (MBD3 (Homo sapiens) [2]; all cytosines 5-hydroxymethylcytosine (PCR with 5hm-dCTP; primer-derived cytosines presumably unmodified)): binds

Molecule: TTCTTCAGCTTTGGGACTCAGACTGGCTTTCCTTGCTCCTCAGCTTGCGGACGGCCTACTGTGGGACCTTGGGATCGTGTGAGTTAATACTTAATAAACTCTCCTATGTGCGTGTGTTTGTGTGTGTGTGTGTGTGTGTATGTATTCTGTCCCTCTAGAGAATGCTGAGTAATACA (double strand) [GNRH1 promoter 5mC probe]
binding (MBD3 (Homo sapiens) [2]; 5-methylcytosine (PCR with 5m-dCTP; primer-derived cytosines presumably unmodified)): no binding

Molecule: TTCTTCAGCTTTGGGACTCAGACTGGCTTTCCTTGCTCCTCAGCTTGCGGACGGCCTACTGTGGGACCTTGGGATCGTGTGAGTTAATACTTAATAAACTCTCCTATGTGCGTGTGTTTGTGTGTGTGTGTGTGTGTGTATGTATTCTGTCCCTCTAGAGAATGCTGAGTAATACA (double strand) [GNRH1 promoter unmodified C probe]
binding (MBD3 (Homo sapiens) [2]): binds more weakly

Molecule: TTCTTCAGCTTTGGGACTCAGACTGGCTTTCCTTGCTCCTCAGCTTGCGGACGGCCTACTGTGGGACCTTGGGATCGTGTGAGTTAATACTTAATAAACTCTCCTATGTGCGTGTGTTTGTGTGTGTGTGTGTGTGTGTATGTATTCTGTCCCTCTAGAGAATGCTGAGTAATACA (double strand) [GNRH1 promoter unmodified competitor]
binding (MBD3 (Homo sapiens) [1]): binds more weakly

binding result [3]: binds
B1: His6-tagged MBD3 (natural protein, human, UniProt O95983 1-291, looked up)
chain: MERKRWECPALPQGWEREEVPRRSGLSAGHRDVFYYSPSGKKFRSKPQLARYLGGSMDLSTFDFRTGKMLMSKMNKSRQRVRYDSSNQVKGKPDLNTALPVRQTASIFKQPVTKITNHPSNKVKSDPQKAVDQPRQLFWEKKLSGLNAFDIAEELVKTMDLPKGLQGVGPGCTDETLLSAIASALHTSTMPITGQLSAAVEKNPGVWLNTTQPLCKAFMVTDEDIRKQEELVQQVRKRLEEALMADMLAHVEELARDGEAPLDKACAEDDDEEDEEEEEEEPDPDPEMEHV
notes: MBD3, human; also called recombinant MBD3; recombinant human MBD3 protein; source: recombinant
